Experimental findings from US20240026035A1 (published 2024) are described below.

This test concerns the target T1, bovine thyroglobulin (bovine, UniProt P01267 20-2769, carries alpha-gal (galactose-alpha-1,3-galactose) glycans).
T1 construct: Antigen coated on ELISA plates, blotted, or on the ImmunoCAP o215 solid phase; It is recognised through its alpha-gal glycans; also called BTG; Thyroglobulin, bovine
Description: direct ELISA, bovine thyroglobulin coated at 25 ug/ml, purified IgE dilution series. Background: ELISA stands for enzyme-linked immunosorbent assay.
Description: Relative fluorescence intensity or optical density was determination on a Molecular Devices plate reader.
By performing EC₅₀ assays using purified IgE mAb, rough comparisons between mAb binding can be made.

T1 sequence (P01267 20-2769 limits assumed): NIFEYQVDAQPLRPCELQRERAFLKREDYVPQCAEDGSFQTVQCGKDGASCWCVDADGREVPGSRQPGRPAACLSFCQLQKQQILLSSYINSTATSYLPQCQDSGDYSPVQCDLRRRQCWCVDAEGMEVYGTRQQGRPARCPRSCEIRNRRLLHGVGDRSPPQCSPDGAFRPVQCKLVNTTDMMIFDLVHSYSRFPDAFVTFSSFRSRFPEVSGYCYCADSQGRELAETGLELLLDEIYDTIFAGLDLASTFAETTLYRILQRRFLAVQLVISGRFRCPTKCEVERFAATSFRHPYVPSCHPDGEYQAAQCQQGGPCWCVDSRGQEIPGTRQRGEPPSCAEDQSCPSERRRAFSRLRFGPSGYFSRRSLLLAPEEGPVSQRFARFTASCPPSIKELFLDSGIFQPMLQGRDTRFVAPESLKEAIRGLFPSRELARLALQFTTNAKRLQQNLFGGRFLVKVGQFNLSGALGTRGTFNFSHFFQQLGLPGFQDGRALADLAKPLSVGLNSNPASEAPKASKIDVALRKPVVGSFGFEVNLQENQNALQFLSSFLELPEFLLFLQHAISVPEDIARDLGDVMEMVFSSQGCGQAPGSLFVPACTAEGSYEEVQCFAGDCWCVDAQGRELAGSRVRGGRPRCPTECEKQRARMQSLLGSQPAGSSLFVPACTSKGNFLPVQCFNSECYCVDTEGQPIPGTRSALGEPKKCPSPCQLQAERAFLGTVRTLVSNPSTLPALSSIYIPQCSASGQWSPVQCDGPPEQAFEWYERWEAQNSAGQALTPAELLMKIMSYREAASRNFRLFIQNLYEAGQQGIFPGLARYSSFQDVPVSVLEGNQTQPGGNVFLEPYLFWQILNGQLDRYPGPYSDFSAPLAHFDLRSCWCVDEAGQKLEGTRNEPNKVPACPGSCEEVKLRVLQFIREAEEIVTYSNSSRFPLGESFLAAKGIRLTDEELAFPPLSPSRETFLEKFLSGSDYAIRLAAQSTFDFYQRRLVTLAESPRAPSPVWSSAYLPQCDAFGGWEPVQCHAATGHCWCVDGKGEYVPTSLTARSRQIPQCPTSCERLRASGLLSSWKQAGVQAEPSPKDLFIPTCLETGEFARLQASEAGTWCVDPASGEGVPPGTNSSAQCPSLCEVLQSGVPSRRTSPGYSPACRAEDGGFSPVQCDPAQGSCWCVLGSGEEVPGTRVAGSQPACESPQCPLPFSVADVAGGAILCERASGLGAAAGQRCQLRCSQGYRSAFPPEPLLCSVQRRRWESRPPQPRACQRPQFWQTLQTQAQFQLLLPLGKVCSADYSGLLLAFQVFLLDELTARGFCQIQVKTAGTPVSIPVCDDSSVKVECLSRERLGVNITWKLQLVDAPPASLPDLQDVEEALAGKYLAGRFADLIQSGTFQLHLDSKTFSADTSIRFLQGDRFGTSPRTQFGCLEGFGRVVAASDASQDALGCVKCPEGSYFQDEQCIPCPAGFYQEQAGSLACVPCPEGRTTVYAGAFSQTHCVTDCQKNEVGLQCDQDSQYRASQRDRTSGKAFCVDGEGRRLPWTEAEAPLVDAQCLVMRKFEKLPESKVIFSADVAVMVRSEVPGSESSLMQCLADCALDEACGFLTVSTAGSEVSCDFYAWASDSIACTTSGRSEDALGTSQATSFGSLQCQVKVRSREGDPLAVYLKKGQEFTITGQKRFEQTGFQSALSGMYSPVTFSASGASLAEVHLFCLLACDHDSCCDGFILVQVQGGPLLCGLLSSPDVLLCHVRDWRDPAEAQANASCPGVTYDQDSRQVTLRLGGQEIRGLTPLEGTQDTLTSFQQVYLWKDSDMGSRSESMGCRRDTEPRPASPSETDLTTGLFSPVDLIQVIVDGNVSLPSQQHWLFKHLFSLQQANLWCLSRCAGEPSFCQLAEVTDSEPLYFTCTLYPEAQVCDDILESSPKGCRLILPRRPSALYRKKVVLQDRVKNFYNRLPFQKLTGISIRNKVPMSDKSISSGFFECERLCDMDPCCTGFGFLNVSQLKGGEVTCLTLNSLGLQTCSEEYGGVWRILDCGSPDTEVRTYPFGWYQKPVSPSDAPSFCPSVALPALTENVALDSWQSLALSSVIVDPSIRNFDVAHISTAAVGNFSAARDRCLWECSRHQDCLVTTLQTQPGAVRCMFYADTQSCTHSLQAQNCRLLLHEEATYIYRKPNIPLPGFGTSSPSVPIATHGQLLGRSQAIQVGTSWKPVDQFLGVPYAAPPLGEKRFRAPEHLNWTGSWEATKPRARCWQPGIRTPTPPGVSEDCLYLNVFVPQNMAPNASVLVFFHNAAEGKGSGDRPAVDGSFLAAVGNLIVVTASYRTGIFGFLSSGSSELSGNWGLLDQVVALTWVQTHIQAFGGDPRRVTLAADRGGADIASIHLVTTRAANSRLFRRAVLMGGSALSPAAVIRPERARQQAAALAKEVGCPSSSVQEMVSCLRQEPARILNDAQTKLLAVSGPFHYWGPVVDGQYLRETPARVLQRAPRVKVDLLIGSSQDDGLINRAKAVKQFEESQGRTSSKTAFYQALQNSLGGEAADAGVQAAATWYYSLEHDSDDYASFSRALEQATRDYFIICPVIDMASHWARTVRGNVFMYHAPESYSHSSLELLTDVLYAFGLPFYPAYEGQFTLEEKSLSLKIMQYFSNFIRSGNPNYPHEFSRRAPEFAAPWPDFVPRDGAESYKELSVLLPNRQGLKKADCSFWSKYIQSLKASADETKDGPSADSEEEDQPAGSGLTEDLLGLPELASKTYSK

B1: human alpha-gal-specific IgE mAb 16D9 (antibody, V domains shown)
VH: QVQLQQWGAGLLKPSETLSLTCAVYGGTFSDYFYTWIRQPPGKGLEWIGEVSHTGRTSYIPSLKSRVTMSVDTSKNQFSLNLSSVTDADTAVYYCGRGRGYTWNDWGQGTLVTVSS
VL: QSALTQPASVSGSPGQSITISCTGTITDVGGYDYVSWYQQHPGKAPKLIIFLVNNRPSGVSDRFSGSKSGNTASLTISGLRVEDEADYYCMSYTCSNPYTCSSLYVFGTGTKVTVL
notes: the IgE constant regions are not
As for B1, the half-maximal effective concentration (EC50) (commonly the concentration needed to bring the measured effect to its halfway point) was found to be 0.016 µg/mL.

B2: human alpha-gal-specific IgE mAb 10H8 (antibody, V domains shown)
VH: QVQLVESGGGVVQPGRSLRLSCAVSGFTFRSFGMHWVRQAPGKGLEWVAVIWHDGSNKHYADSVKGRFTISRDDSKNTLFLQMNSLRAEDTAVYYCARESEEQGNMDVWGQGTTVTVSS
VL: DVVMTQSPLSLPATLGQPASISCRSSHSLVYSNGNTYLNWFQQRPGQSPRRLFFQVSNRDSGVPDRFSGSGSVTNFTLKISRVEAEDVGVYYCMEGSHWPPYTFGQGTRLDIR
notes: as for B1
In turn, B2 displayed a 50% effective concentration (EC50) of 0.072 µg/mL.
